Data on 3 molecules can be found in patent US20210277128A1 (published 2021).

The target of experiment [1] is T1, Monomeric EGFR extracellular domain (ProSpec Bio, PKA-344) (UniProt P00533 25-645, limits assumed).
T1 construct: extracellular domain; Bought reagent; also called EGFR ECD
The experiment in a line: BLI (BLItz), antibody on anti-human IgG Fc tips, EGFR ECD 200 nM then Her3 ECD 200 nM.
Experimental: Bispecific binding to EGFR and Her3 extracellular domains was measured in a biolayer interferometry (BLI) binding assay on a BLItz instrument (ForteBio, Inc.). […] Binding of EGFR ECD to the tips was recorded as biolayer interferometry signals (Δnm) over an association time of 120 seconds.

In experiment [2] the target is T2, SI-2C1, dimeric EGFR ECD fused to rabbit Fc (UniProt P00533 25-645, limits assumed).
T2 construct: extracellular domain; Made in house
The experiment in a line: ELISA, dimeric EGFR ECD-rabbit Fc coated, anti-human IgG-HRP detection.
Experimental: ELISA was performed using dimeric EGFR ECD reagent, SI-2C1, fused to rabbit Fc created in house. EGFR was coated onto Maxisorp immunoplates (Nunc) at 3 μg/mL in PBS at 4° C. overnight. Plates were blocked in PBS with 3% BSA and 0.05% Tween20 for 2 hours at room temperature. […] 3 washes with PBST (1% BSA) were performed between each step.

Experiment [3] has as its target T1, Monomeric EGFR extracellular domain …. The experiment in a line: BLI (BLItz), antibody on anti-human IgG Fc tips, EGFR ECD 588 nM; benchmark antibody.
Experimental: Monomeric EGFR extracellular domain binding was measured in a biolayer interferometry (BLI) binding assay on a BLItz instrument (ForteBio, Inc.). […] Binding of EGFR ECD to the tips was recorded as biolayer interferometry signals (Δnm) over an association time of 120 seconds.

B1: SI-1X1 (bispecific antibody, human IgG1, kappa)
heavy: not shown
light: QSALTQPASVSGSPGQSITISCTGTSSDVGGYNFVSWYQQHPGKAPKLMIYDVSDRPSGVSDRFSGSKSGNTASLIISGLQADDEADYYCSSYGSSSTHVIFGGGTKLTVLRTVAAPSVFIFPPSDEQLKSGTASVVCLLNNFYPREAKVQWKVDNALQSGNSQESVTEQDSKDSTYSLSSTLTLSKADYEKHKVYACEVTHQGLSSPVTKSFNRGEC
notes: Tetravalent IgG-(G4S)2-scFv; heavy chain entry holds gamma-1 heavy chain, connector and scFv; Anti-Her3 IgG moiety, anti-EGFR scFv
On to B1, for which the binding result in experiment [1] is recorded as “binds”.

B2: SI-1C5 (antibody, human IgG1, kappa, V domains shown)
VH: QVQLQQSGAEVKKPGSSVKVSCKASGYTFTNYYIYWVRQAPGQGLEWIGGINPTSGGSNFNEKFKTRVTITVDESTNTAYMELSSLRSEDTAFYFCARQGLWFDSDGRGFDFWGQGSTVTVSS
VL: DIQMTQSPSSLSASVGDRVTITCRSSQNIVHSNGNTYLDWYQQTPGKAPKLLIYKVSNRFSGVPSRFSGSGSGTDFTFTISSLQPEDIATYYCFQYSHVPWTFGQGTKLQITR
notes: Monospecific anti-EGFR antibody
B2: in experiment [2], the binding result is listed as “binds”.

B3: SI-1C4 (bispecific antibody, human IgG1, kappa, V domains shown)
VH: EVQLVESGGGLVQPGGSLRLSCAASGFTLSGDWIHWVRQAPGKGLEWVGEISAAGGYTDYADSVKGRFTISADTSKNTAYLQMNSLRAEDTAVYYCARESRVSFEAAMDYWGQGTLVTVSS
VL: DIQMTQSPSSLSASVGDRVTITCRASQNIATDVAWYQQKPGKAPKLLIYSASFLYSGVPSRFSGSGSGTDFTLTISSLQPEDFATYYCQQSEPEPYTFGQGTKVEIKR
notes: also called IC4
As to B3, the binding result in experiment [3] is on record as “binds”.
